Assay results from the supplement of paper PMC12042874.
± gives the uncertainty stated by the source.

Test: amyloid nucleation score (Sup35N fusion, yeast selection) (log enrichment); library NNK3; higher = more nucleation; inactive = no reads after selection
How it was run: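 Three technical output replicates were used for random libraries. Psi-negative yeast expressing peptides of 20 random codons fused to Sup35N were induced with 100 μM copper sulfate for 24 hours and grown 7 days at 30°C on medium lacking adenine and uracil, and input and output plasmid inserts were Illumina-sequenced, excluding sequences with under 100 input reads. The nucleation score is the DiMSum log enrichment of output over input reads, centred on the mode score of non-aggregating sequences.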

| Substance | amyloid nucleation score |
| --- | --- |
| LIYCYMFMITAVGRACMPCR | inactive |
| LIYYCEHHARLSVLLDESSA | inactive |
| LKCFEMNYQYGRRLNNG | inactive |
| LKCSLLYCRCRPGYQIAGT | inactive |
| LKIWGRFITGETV | inactive |
| LKNGLYYHHYFTFLMAYIHQ | inactive |
| LKPQHSSGGSLSRMIYRPFL | 2.18 ± 0.088 |
| LKVKLANR | inactive |
| LKVLVD | inactive |
| LKVVSKVLYNSSYPVRYVLR | inactive |
| LLAWFHNCRLRLI | inactive |
| LLCGSCWFYTMGHVSPNKRI | 0.862 ± 0.11 |
| LLCMWFCKSRLPRCSKCCSR | inactive |
| LLCYWSLA | inactive |
| LLDENGGHYSSIRAISDGGI | inactive |
| LLDFVNGFYCFDFTGTFNIY | 0.993 ± 0.15 |
| LLDIC | inactive |
| LLDNITLFVWNYMVSSEWKL | inactive |
| LLECNRTMPQLMVWEVFCSV | inactive |
| LLGLCRVLW | 1.31 ± 0.097 |
| LLIFYGKLMIWGSGHSDTFR | inactive |
| LLKPTVRCKPRLK | inactive |
| LLKSGYYKGGFVKGAIRFRE | inactive |

| Substance | amyloid nucleation score |
| --- | --- |
| LLLGDVVVMTEAYYIMSPVP | inactive |
| LLLIWWNLALNLKLFFELKV | inactive |
| LLLPWCYFRRKMGRR | inactive |
| LLMFTFHYSPFS | 0.483 ± 0.37 |
| LLMLCRCKPYFFGFYLCWFR | inactive |
| LLPAI | inactive |
| LLPDRFANPGETWVLNYKLM | inactive |
| LLQICGVYYYPIVSYSPDDF | inactive |
| LLRFP | inactive |
| LLRSCYVSYALNGYSTTFRD | inactive |
| LLRSQASTATGYH | inactive |
| LLSFLTVRLCVFRTYFW | inactive |
| LLVRMILNYKELLVTAILQV | inactive |
| LLVVY | inactive |
| LLWEWYFI | inactive |
| LLWSCCRGRMYDNMFHGKVK | inactive |
| LLYETLLIIMCGKCLQFYIV | inactive |
| LMFDVFLMSTFVFDNL | inactive |
| LMGLCTLI | inactive |
| LMLNGHAVHMSSNSEALVIC | inactive |
| LMSVLRFQTP | inactive |
| LMVSREFWCSLSKV | inactive |
| LNCLRMSLLC | inactive |

| Substance | amyloid nucleation score |
| --- | --- |
| LNCQYTFHAKCSFLHPSLL | 0.928 ± 0.21 |
| LNFTCEVGGVYEVDVNSCLL | inactive |
| LNHRIWLTLFGSASRLVKFD | inactive |
| LNIIVDGLAMDVYDEALGSN | inactive |
| LNIQFFINLALAEGFLYNRK | 2.97 ± 0.084 |
| LNKLTKIVVSHKGLCFELGG | inactive |
| LNLGIFV | inactive |
| LNLQNVVYGTMSEHSASSVD | inactive |
| LNQLGSCY | -0.019 ± 1.1 |
| LNQSDRCKVCWYWLGHT | inactive |
| LNQYLYFVRDMGDVMFCLYF | inactive |
| LNRVRSS | -0.108 ± 0.7 |
| LNSDIVVNLNIAWSYCIV | 1.39 ± 0.068 |
| LNSGIS | 0.103 ± 0.24 |
| LNSTVSGKFMLL | 0.078 ± 0.66 |
| LNTYQHFCIFMLSYALLSGH | -1.49 ± 2.5 |
| LNYGSDLDSIYYSFTL | -0.896 ± 0.96 |
| LNYTEASYSLTGHTISISTV | -0.156 ± 1.5 |
| LPAHTL | inactive |
| LPAWKKTAFYFRYHGPFVRS | inactive |
| LPKCQLLLRRCRV | inactive |
| LPSVDVRKTI | inactive |
| LPTIQILRQNTVPIGVHHKF | inactive |

| Substance | amyloid nucleation score |
| --- | --- |
| LQDMPGNGFPVWVDISFSSY | inactive |
| LQGVFRMSQISG | inactive |
| LQMYWIIV | inactive |
| LQNVGD | inactive |
| LQRYRPADMRVGASSSGNTK | 0.121 ± 1 |
| LQSCKATPRLCFEATLGRGV | -0.992 ± 2.5 |
| LQSEPVLSDTSMSGVVASYF | inactive |
| LQYYLRPRFNLRLYGAIPPA | inactive |
| LRCTVRSLAKFVFYRFKTGG | inactive |
| LRFAYTFFWYVRFRVRICFN | inactive |
| LRFMRSI | inactive |
| LRFRAQNTYEGPYTVGPVWS | inactive |
| LRFRLNSRVYTTHNIKVPSL | inactive |
| LRGDGLMIVIVVWCIYGYLC | inactive |
| LRGFMISSWDFFADGSDVRL | inactive |
| LRGNECRPGVELPVTVSKFR | inactive |
| LRGYLHWLCSECSVLVSAVA | inactive |
| LRHGSSEFNYGNFFLCLFEQ | 2.56 ± 0.075 |
| LRKGVRLLFSHHVIIK | inactive |
| LRLNKLCEVFAPLTSVLAGT | inactive |
| LRLQIEKTAKNMFEYKAG | inactive |
| LRLVGLLMGNIFFELYGDLC | inactive |
| LRNSHGDDNVIRLVNNCNSV | inactive |

| Substance | amyloid nucleation score |
| --- | --- |
| LRPRYSAYILQSRR | inactive |
| LRQNTYMLLSGNIVCRIVSF | inactive |
| LRRLELIGLECNLTGSRAVP | inactive |
| LRRMDQMANDLFAI | inactive |
| LRRQTSHKS | inactive |
| LRSLLNQVMSYSMYILYNSQ | inactive |
| LRSVFSRYFGQVHEFSRQRY | inactive |
| LRWFFVHPQWIRGCGLAMLS | inactive |
| LRYNRDVTS | inactive |
| LSAAFYDMETIGWISGSWVN | inactive |
| LSCHETCLVISGLCMLMMRL | inactive |
| LSEMANDHEHVYSYRKAHYM | -0.626 ± 0.8 |
| LSEWMSESGNFEFCVASLYR | inactive |
| LSFFGSYSSSRLF | 1.43 ± 0.11 |
| LSGPMRYELCMRLGSGLNYE | inactive |
| LSGSLTTISIITGGVDCD | inactive |
| LSGSRTRSRFPDCLNCIS | inactive |
| LSKFFRWV | inactive |
| LSKHEAGTCRLVNDRTHYKA | inactive |
| LSLCRNKSIKWVFSLMEIL | inactive |
| LSLKNFMSSFSSLWCGWSDD | 0.689 ± 0.29 |
| LSLWMGVEDFVLCGSVNTSR | inactive |
| LSMCAVFDRYLWVGSGDITY | inactive |

| Substance | amyloid nucleation score |
| --- | --- |
| LSMTGV | inactive |
| LSNDYCLRWVFMFKVMIRCD | inactive |
| LSNIICSCQLCWACPSLSVM | 2.47 ± 0.057 |
| LSNLRGYNH | inactive |
| LSPWVSMILVKFKLHLYLRR | inactive |
| LSSLYLCCYACPNMLLI | 1.58 ± 0.11 |
| LSSSGIMFCFFVDGLRSLV | inactive |
| LSTIIHDFIGCCAVNAQLIG | inactive |
| LSTQNRISASREMMDTDILG | 0.8 ± 0.13 |
| LSYGFLGDRYVLHGCLMYFP | inactive |
| LSYGRGVTVLYVLWSYFISR | inactive |
| LSYQDVWGSYGICEGSVWYS | inactive |
| LTAVLLTPYSLFGFALWWFV | -0.487 ± 1.4 |
| LTEMVLPLVHHLKTWSFVQE | inactive |
| LTFCVSMKCKIW | inactive |
| LTINDLCGFVKWLRTNCNVS | inactive |
| LTLITPPTRS | inactive |
| LTMVWDNIAMYMHWHMTTPI | inactive |
| LTNCRHSWWEDTTYSMWEVQ | inactive |
| LTRFRDIRFLINKNGACKEW | -0.213 ± 0.71 |
| LTSSEQDAITLTTCGISECA | inactive |
| LTTICS | inactive |
| LVADSDRMNVTLRFTVSYCS | inactive |

| Substance | amyloid nucleation score |
| --- | --- |
| LVCFARVRKMEAEAFMKLVW | 0.64 ± 0.26 |
| LVDLSRSISKSPMQKYRF | inactive |
| LVEIVLYWSRVWYWTRGSNV | inactive |
| LVEVDDASNIDCEAAYCKWY | inactive |
| LVFGLLLS | inactive |
| LVFRIN | inactive |
| LVFSNFYGYFRASC | inactive |
| LVFYMFAFITFVIYMMLIFY | 0.163 ± 0.29 |
| LVICKNINKLISWLSDYSFA | inactive |
| LVIWYLQSLYSPGINCQDLR | inactive |
| LVLAVVMTFRLRIRLSNLSR | inactive |
| LVLSVWKLKLSGLALIFWYG | inactive |
| LVNGTFNFSDHAESESCSHS | inactive |
| LVNLCRIRRVLECVRRRHRS | inactive |
| LVRCSNTR | inactive |
| LVRVGSSNYLVNQIRPNISA | inactive |
| LVSEPFQMRSTGGIGLIAVY | inactive |
| LVSVGSDWDCLHFISGKFPG | inactive |
| LVSWSIA | inactive |
| LVTFCYLDGSILNGEALRG | inactive |
